The Human Domainome abundance scans (Beltran et al. 2025)
± gives the uncertainty stated by the source.

Assay: abundance fitness (aPCA) (normalised: wild type 0, dead -1); higher = more abundant; growth selection in yeast, the domain comes from the species named
Conditions: Homo sapiens
For “Lipoamide acyltransferase component of branched-chain alpha-keto acid dehydrogenase complex, mitochondrial R179I, P11182”, the abundance fitness was -0.248 ± 0.059. In the case of “Lipoamide acyltransferase component of branched-chain alpha-keto acid dehydrogenase complex, mitochondrial D197F, P11182”, the abundance fitness is reported as -0.26 ± 0.17. With “Lipoamide acyltransferase component of branched-chain alpha-keto acid dehydrogenase complex, mitochondrial V191C, P11182” the abundance fitness was -0.267 ± 0.053. “Lipoamide acyltransferase component of branched-chain alpha-keto acid dehydrogenase complex, mitochondrial A176E, P11182” showed an abundance fitness of -0.043 ± 0.06. With “Lipoamide acyltransferase component of branched-chain alpha-keto acid dehydrogenase complex, mitochondrial T171L, P11182” the abundance fitness was -0.632 ± 0.17. For “Lipoamide acyltransferase component of branched-chain alpha-keto acid dehydrogenase complex, mitochondrial V192F, P11182”, the abundance fitness was -0.31 ± 0.21. In the case of “Lipoamide acyltransferase component of branched-chain alpha-keto acid dehydrogenase complex, mitochondrial I205R, P11182”, the abundance fitness is reported as -0.343 ± 0.035. Work on “Lipoamide acyltransferase component of branched-chain alpha-keto acid dehydrogenase complex, mitochondrial G193M, P11182” yielded an abundance fitness of -0.694 ± 0.073. With “Lipoamide acyltransferase component of branched-chain alpha-keto acid dehydrogenase complex, mitochondrial R178M, P11182” the abundance fitness was -0.035 ± 0.048. “Lipoamide acyltransferase component of branched-chain alpha-keto acid dehydrogenase complex, mitochondrial A173Y, P11182” showed an abundance fitness of -0.153 ± 0.19. For “Lipoamide acyltransferase component of branched-chain alpha-keto acid dehydrogenase complex, mitochondrial A176T, P11182”, the abundance fitness was -0.067 ± 0.051. For “Lipoamide acyltransferase component of branched-chain alpha-keto acid dehydrogenase complex, mitochondrial G198D, P11182”, the abundance fitness was -0.341 ± 0.11. “Lipoamide acyltransferase component of branched-chain alpha-keto acid dehydrogenase complex, mitochondrial A176W, P11182” showed an abundance fitness of -0.473 ± 0.045. For “Lipoamide acyltransferase component of branched-chain alpha-keto acid dehydrogenase complex, mitochondrial I200Q, P11182”, the abundance fitness was -0.643 ± 0.07. Nanos homolog 2 K67R, P60321 gave an abundance fitness of -0.197 ± 0.05. “Lipoamide acyltransferase component of branched-chain alpha-keto acid dehydrogenase complex, mitochondrial V192Y, P11182” gave an abundance fitness of -0.141 ± 0.079. With “Lipoamide acyltransferase component of branched-chain alpha-keto acid dehydrogenase complex, mitochondrial L172D, P11182” the abundance fitness was -0.237 ± 0.076. Substance “Lipoamide acyltransferase component of branched-chain alpha-keto acid dehydrogenase complex, mitochondrial G214Y, P11182” has an abundance fitness of -0.189 ± 0.12. Substance “Lipoamide acyltransferase component of branched-chain alpha-keto acid dehydrogenase complex, mitochondrial L206C, P11182” has an abundance fitness of -0.555 ± 0.34. Work on “Lipoamide acyltransferase component of branched-chain alpha-keto acid dehydrogenase complex, mitochondrial M182I, P11182” yielded an abundance fitness of -0.408 ± 0.24. “Lipoamide acyltransferase component of branched-chain alpha-keto acid dehydrogenase complex, mitochondrial L172I, P11182” showed an abundance fitness of -0.047 ± 0.066. Work on “Lipoamide acyltransferase component of branched-chain alpha-keto acid dehydrogenase complex, mitochondrial L206E, P11182” yielded an abundance fitness of 0.007 ± 0.06. In the case of “Lipoamide acyltransferase component of branched-chain alpha-keto acid dehydrogenase complex, mitochondrial R199Q, P11182”, the abundance fitness is reported as 0.045 ± 0.045. In the case of “Lipoamide acyltransferase component of branched-chain alpha-keto acid dehydrogenase complex, mitochondrial G193Y, P11182”, the abundance fitness is reported as -1.02 ± 0.26. With “Lipoamide acyltransferase component of branched-chain alpha-keto acid dehydrogenase complex, mitochondrial I205Q, P11182” the abundance fitness was -0.302 ± 0.048. “Lipoamide acyltransferase component of branched-chain alpha-keto acid dehydrogenase complex, mitochondrial E203R, P11182” gave an abundance fitness of 0.024 ± 0.037. With “Lipoamide acyltransferase component of branched-chain alpha-keto acid dehydrogenase complex, mitochondrial V177I, P11182” the abundance fitness was -0.139 ± 0.058. “Lipoamide acyltransferase component of branched-chain alpha-keto acid dehydrogenase complex, mitochondrial E190K, P11182” showed an abundance fitness of -0.178 ± 0.056. Work on “Lipoamide acyltransferase component of branched-chain alpha-keto acid dehydrogenase complex, mitochondrial V191F, P11182” yielded an abundance fitness of -0.456 ± 0.054. Substance “Lipoamide acyltransferase component of branched-chain alpha-keto acid dehydrogenase complex, mitochondrial L172T, P11182” has an abundance fitness of -0.085 ± 0.1. For “Lipoamide acyltransferase component of branched-chain alpha-keto acid dehydrogenase complex, mitochondrial T213G, P11182”, the abundance fitness was 0.093 ± 0.036. Substance “Lipoamide acyltransferase component of branched-chain alpha-keto acid dehydrogenase complex, mitochondrial K187T, P11182” has an abundance fitness of -0.097 ± 0.057. With “Lipoamide acyltransferase component of branched-chain alpha-keto acid dehydrogenase complex, mitochondrial L206N, P11182” the abundance fitness was -0.052 ± 0.066. With “Lipoamide acyltransferase component of branched-chain alpha-keto acid dehydrogenase complex, mitochondrial G214M, P11182” the abundance fitness was -0.154 ± 0.23. Work on “Lipoamide acyltransferase component of branched-chain alpha-keto acid dehydrogenase complex, mitochondrial L180I, P11182” yielded an abundance fitness of -0.194 ± 0.11.
